From US20140099332A1 (IMMUNOGEN, published 2014)
Values joined by “and” are separate entries in the source; they are usually repeats but may differ in a detail not shown here. Identical values can stand only once.

B1: muFR1-9 (antibody, mouse IgG1, kappa, V domains shown)
VH: QVQLVESGGGLVQPGGSRKLSCAASGFTFSSFGMHWVRQAPEKGLEWVAYISSGSSTFYYADTVKGRFTISRDNPKNTLFLQMTSLRSEDTAMYYCAKELTGTFAYWGQGTLVTVSA
VL: DIVLTQSPATLSVTPGDSVSLSCRASQSINNNLHWYQQKSHESPRLLIKYASQSISGIPSRFSGSGSGTDFTLSINSVETEDFGMYFCQQSNSWPQVTFGAGTKLELKR
notes: Murine monoclonal purified from hybridoma supernatant; Capture antibody of the sandwich ELISA; also called murine FR1-9
B2: muFR1-62 (antibody, mouse IgG1, kappa, V domains shown)
VH: QVQLQQSGAELARPGASVKMSCKASGYTFTTYTMHWVKQRPGQGLEWIAYINPTSGYNNYNQKFKEKATLTADKSSSTAYMQLTSLTSEDSAVYYCASGGAYGRRPVDYWGQGTSVTVSS
VL: DIVMTQSQKFMSISVGDRVSVTCKASQNVGTNVAWYQQKPGQSPKTLIYSASSRYSGVPDRFTGSGSGTDFTLTISNVQSEDLADYFCHQYNSYPYTFGGGTKLEIKR
notes: Murine monoclonal; The full-length light chain differs from the VL by shifted residues
B3: muFR1-13 (antibody, mouse IgG2b, kappa, V domains shown)
VH: QVQLKESGPDLVAPSQSLSITCTVSGFSLSRYSVHWIRQPPGKGLEWLGMIWSGGNTDYNSVFKSRLNITKDNSKSQVFLKMNSLQTDDTAIYYCATFDGKVSWFAYWGQGTLVTVSA
VL: SIVMTQTPKFLLVSTGDRFTITCKASQSVSNDVLWYQQKPGQSPKLLIYYAYNRYSGVPDRFTGSGYGTDFTFTITTVQSEDLAVYFCQQDHSSPFTFGSGTKLEIKR
notes: Murine monoclonal purified from hybridoma supernatant; also called muFR1-13b (biotinylated); Biotinylated FR1-13
B4: muFR1-53 (antibody, mouse IgG1, kappa, V domains shown)
VH: QVQLQQSGPELVRPGASVKMSCKASGYKFTDYDISWVLQRTGQGLEWIGEIYPGSGRTYYNERFKGKATLTADKSSNTVYMQLSSLTSEDSAVYFCASSYYYGTNSPFAYWGQGTTLTVSS
VL: DIQMTQTTSSLSASLGDRVTISCRASQDISNYLHWYQRKPDGTVKLLVYYTSRLQSGVPSRFSGSGSGTDYSLTISNLEQEDIATYFCQQGNSLPPTFGSGTKLEIKR
notes: The full-length chains differ from the variable domains by shifted residues

What was measured:
[1] = target: T1, human FolR1-Fc fusion protein (human; mouse, UniProt P15328 25-233); assay: sandwich ELISA (FOLR1 ELISA): clone coated on the plate as capture antibody, FOLR-Fc fusion titrated, format as in FIG. 1
T1 construct: The construct encodes the 233 amino acids from the N-terminal signal peptide to just upstream of the GPI linkage site; also called huFOLR1-Fc; human folate receptor 1 Fc fusion molecule; not shown: residues encoded by the Pst1 to BamHI oligonucleotide linker
T1 sequence (P15328 25-233): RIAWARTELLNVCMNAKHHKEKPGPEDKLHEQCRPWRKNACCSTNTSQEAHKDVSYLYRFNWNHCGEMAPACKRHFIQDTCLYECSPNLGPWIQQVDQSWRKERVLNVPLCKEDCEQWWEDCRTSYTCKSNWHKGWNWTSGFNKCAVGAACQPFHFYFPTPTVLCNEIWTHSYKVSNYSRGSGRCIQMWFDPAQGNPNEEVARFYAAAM
Protocol: The 40 clones were alternatively coated onto the assay plate in place of muFR1-9 in the diagram, and the resulting binding curves were analyzed shown in FIG. 5. Antibodies that contained the lowest half-maximal response (EC50) were considered to have the highest binding specificity to FOLR1, and thus were chosen as the top candidates for the assay.

[2] = target: T2, FOLR2 (UniProt P14207 17-230, limits assumed); assay: ELISA on FOLR2-His antigen, antibody titrated ([Ab] (M)); positive control FR2 Ab reaches about 0.42 [left graph (FOLR2-His]
T2 construct: also called folate receptor 2
T2 sequence (P14207 17-230 limits assumed): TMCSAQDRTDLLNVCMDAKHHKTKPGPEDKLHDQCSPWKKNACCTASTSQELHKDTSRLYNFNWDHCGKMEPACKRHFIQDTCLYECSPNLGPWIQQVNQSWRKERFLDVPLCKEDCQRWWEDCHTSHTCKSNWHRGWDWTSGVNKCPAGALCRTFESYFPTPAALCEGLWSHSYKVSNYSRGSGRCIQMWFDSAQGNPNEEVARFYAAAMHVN

[3] = target: T3, human folate receptor 1 (FOLR1) on cells (human, UniProt P15328 25-234); assay: apparent binding affinity 'by both methods': flow cytometry on T47D cells and ELISA; unit M taken from the preceding value; lower end of the range given for FR1-9; flow cytometry on T47D cells and ELISA
T3 construct: also called FRA; huFolR1
T3 sequence (P15328 25-234): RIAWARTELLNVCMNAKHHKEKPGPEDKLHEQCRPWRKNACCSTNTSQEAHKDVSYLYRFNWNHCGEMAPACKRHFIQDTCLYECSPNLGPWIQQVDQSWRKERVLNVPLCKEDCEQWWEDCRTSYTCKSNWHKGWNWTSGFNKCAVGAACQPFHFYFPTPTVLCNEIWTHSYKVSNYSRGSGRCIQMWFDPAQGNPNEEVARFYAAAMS
Protocol: (§1) To assure that materials were continuously performing as expected, all antibodies were screened for binding by both ELISA and flow cytometry methods known in the art. Flow cytometry was performed using FOLR1 expressing human T47D cells cultured using in-vitro cell culture techniques known in the art. The antibodies were bound to these cells and detected indirectly using a goat anti-murine Alexa-fluor 488 detection antibody on a FACScalibur machine (FIG. 6A-B).

[4] = target: T3, human folate receptor 1 (FOLR1) on cells; assay: laser scanning cytometry on cell lines, optimal dilution 1:100
Protocol: (§2) Three cell lines with varying levels of FOLR1 expression were selected as representative of high expression (KB), low expression (OVCAR3), and no expression (A549). Unlabeled FR1-9 and FR1-13, as well as a commercial anti-FOLR1 antibody (“commercial FRA”), were titrated, and optimal titrations were determined for each of the antibodies using laser scanning cytometry (LSC) detection on the selected cell lines. […] Optimal dilutions were identified for each antibody as follows: 1:5 for commercial FRA, 1:100 for muFR1-9, and 1:200 for muFR1-13.

[5] = target: T4, FOLR3 (human, UniProt P41439 23-245, limits assumed); assay: ELISA with FOLR3-His antigen titrated ([Ag ug/ml]); positive control reaches about 2.6 after 3 min development [right graph (FOLR3-His]
T4 construct: also called folate receptor 3
T4 sequence (P41439 23-245 limits assumed): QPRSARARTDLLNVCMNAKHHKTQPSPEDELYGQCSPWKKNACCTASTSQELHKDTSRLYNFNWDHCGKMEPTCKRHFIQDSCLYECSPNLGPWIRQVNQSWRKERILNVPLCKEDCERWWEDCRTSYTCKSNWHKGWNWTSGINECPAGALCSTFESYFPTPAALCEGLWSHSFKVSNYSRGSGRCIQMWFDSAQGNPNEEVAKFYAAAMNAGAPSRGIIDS

[6] = target: T3, human folate receptor 1 (FOLR1) on cells; assay: apparent binding affinity 'by both methods': flow cytometry on T47D cells and ELISA; unit M taken from the preceding value; upper end of the range given for FR1-9; flow cytometry on T47D cells and ELISA
Protocol: as §1

[7] = target: T1, human FolR1-Fc fusion protein; assay: sandwich ELISA: Mu FOLR1-13 coated on the plate, FOLR-Fc fusion titrated, detected with Hu Mov19 and polyclonal goat anti-human HRP
[8] = target: T3, human folate receptor 1 (FOLR1) on cells; assay: apparent binding affinity 'by both methods': flow cytometry on T47D cells and ELISA; upper end of the range given for FR1-13; flow cytometry on T47D cells and ELISA
Protocol: as §1

[9] = target: T3, human folate receptor 1 (FOLR1) on cells; assay: indirect flow cytometry, T47D cells, Alexa-488 goat anti-mouse
Protocol: as §1

[10] = target: T1, human FolR1-Fc fusion protein; assay: sandwich ELISA (Folate ELISA): 1 ug/ml FR1-64, 1 ug/ml FR1-13-Biotin, FOLR1-Fc titrated
[11] = target: T3, human folate receptor 1 (FOLR1) on cells; assay: laser scanning cytometry on cell lines, optimal dilution 1:200
Protocol: as §2

[12] = target: T3, human folate receptor 1 (FOLR1) on cells; assay: apparent binding affinity 'by both methods': flow cytometry on T47D cells and ELISA; lower end of the range given for FR1-13; flow cytometry on T47D cells and ELISA
Protocol: as §1

[13] = target: T5, FOLR1 (antigen of the screening ELISAs, form not stated) (human, UniProt P15328 25-234); assay: competition ELISA: serial concentrations of competing murine clone against a constant concentration of (biotinylated) muFR1-13
T5 construct: It may be the FOLR1-Fc fusion; also called the same antigen; the target
T5 sequence (P15328 25-234 limits assumed): as the sequence (P15328 25-234) above

Binder | EC50 (read off the curve) [1] | binding result [2] | Kd [3] | signal to background ration [4] | binding result [5] | Kd [6] | EC50 (read off the curve) [7] | Kd [8] | EC50 (read off the curve) [9] | EC50 (read off the curve) [10] | signal to background ration [11] | Kd [12] | IC50 (read off the curve) [13]
B1 | ~0.004 nM | no binding (tested: about 10^-8 M antibody) | ≥ 2 nM | 4.07 | no binding (tested: about 2.5 ug/ml antigen) | ≤ 4 nM | – | – | – | – | – | – | –
B2 | ~0.01 nM | no binding (tested: about 10^-8 M antibody) | – | – | no binding (tested: about 2.5 ug/ml antigen) | – | – | – | – | – | – | – | –
B3 | – | no binding (tested: about 10^-8 M antibody) | – | – | no binding (tested: about 2.5 ug/ml antigen) | – | ~0.005 nM | ≤ 3 nM | ~1 nM and ~2 nM | ~2 nM and ~3 nM | 4.19 | ≥ 1 nM | ~0.07 µg/mL
B4 | ~0.01 nM | no binding (tested: about 10^-8 M antibody) | – | – | no binding (tested: about 2.5 ug/ml antigen) | – | – | – | – | – | – | – | –
